± gives the uncertainty stated by the source.
Assay: protein stability index of a GFP-peptide fusion (yeast GPS) (PSI 1-4); higher = more stable; sorted into four equal gates, so the index is relative within each strain
Summary of the method: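 Peptides tiling yeast proteins in 17-residue segments were fused downstream of GFP, with Cherry expressed from the same plasmid. As a pooled library in yeast, mid-log cultures grown in leucine-free medium were sorted into four equal gates by GFP/Cherry fluorescence ratio. Gate plasmids were PCR-amplified and Illumina-sequenced, and barcodes linked reads to strains. Each peptide received a protein stability index equal to the sum of each gate's read frequency times its gate number.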

Sequence | protein stability index (doa10∆) | protein stability index (pdr5∆) | protein stability index (san1∆) | protein stability index (ubr1∆)
IHKQIVIEMKRCFENLQ [UBP6] | 2.75 ± 0.097 | 2.13 ± 0.093 | 3.1 ± 0.064 | 2.87 ± 0.1
KNVENTKNLSILTSKVN [DSN1] | 2.37 ± 0.061 | 2.36 ± 0.049 | 2.53 ± 0.077 | 2.51 ± 0.036
LLYADSLTAEAMTAAEH [CYT1] | 2.34 ± 0.056 | 2.67 ± 0.054 | 2.78 ± 0.057 | 2.58 ± 0.041
GEIIDISAFTQFLRLIF [ARP9] | 2.45 ± 0.08 | 2.23 ± 0.075 | 2.59 ± 0.11 | 2.94 ± 0.065
SLPLIVFLRNRLKYALN [RPS4A] | 1.4 ± 0.059 | 1.58 ± 0.092 | 1.48 ± 0.12 | 1.7 ± 0.043
ELKKKRKIKRLEKFLQG [SRP72] | 3.22 ± 0.073 | 3.24 ± 0.091 | 3.19 ± 0.09 | 3.25 ± 0.049
VNESRNSDDIIDVDMDA [SRB5] | 2.27 ± 0.065 | 2.2 ± 0.053 | 2.57 ± 0.078 | 2.59 ± 0.052
IRPDGRLPHQFRPIEIF [RRP42] | 1.84 ± 0.087 | 1.94 ± 0.084 | 1.35 ± 0.12 | 2.16 ± 0.073
IDYHKTAKETKMLMNLH [RPN11] | 2.5 ± 0.061 | 2.45 ± 0.06 | 2.84 ± 0.057 | 2.58 ± 0.055
VLQDLRLGSKKLVEIIW [YJL039C/NUP192] | 3.25 ± 0.1 | 3.09 ± 0.16 | 3.15 ± 0.068 | 3.39 ± 0.14
LKQPPFQITLSSDDLQN [SSN8] | 2.23 ± 0.059 | 2.31 ± 0.077 | 2.34 ± 0.064 | 2.35 ± 0.085
SEKRLDHFIHLRNLHMK [SNF12] | 2.75 ± 0.051 | 2.73 ± 0.043 | 2.74 ± 0.052 | 2.62 ± 0.037
MLDKLMVTSIRSTPNYI [MED6] | 2.4 ± 0.064 | 2.52 ± 0.061 | 2.43 ± 0.098 | 2.66 ± 0.05
IDTDLFGAPNNPNSTAI [YGL172W/NUP49] | 2.8 ± 0.075 | 2.78 ± 0.063 | 2.91 ± 0.053 | 2.59 ± 0.053
IDDLIHEIITVGPHFKQ [RPL7A] | 1.87 ± 0.1 | 2.32 ± 0.11 | – | 1.56 ± 0.064
NVELLNCIRILADKLEN [YIL149C/MLP2] | 1.22 ± 0.069 | 1.36 ± 0.074 | 1.06 ± 0.13 | 1.2 ± 0.045
IKFKKCDGDTVWDKFAV [SSN2] | 3 ± 0.052 | 3.03 ± 0.048 | 2.87 ± 0.046 | 2.75 ± 0.046
LDMELAELDPSLRTPIA [SEC65] | 3.34 ± 0.14 | 3.26 ± 0.092 | 3.08 ± 0.081 | 3.06 ± 0.076
GSIAMARVLFDDMVEYE [CYT1] | 3.51 ± 0.18 | 3.33 ± 0.12 | 3.04 ± 0.1 | 3.35 ± 0.097
RMRLRALETENMEIRNL [GRR1] | 3.09 ± 0.069 | 3.02 ± 0.051 | 2.78 ± 0.055 | 3.04 ± 0.041
LALAETLKLRARQRGKL [SRP68] | – | 2.64 ± 0.21 | 2.25 ± 0.26 | 2.97 ± 0.098
YFNQLKPYYFSNNHKLS [RPN12] | 1.17 ± 0.057 | 1.32 ± 0.077 | 1.19 ± 0.13 | 1.24 ± 0.04
NFADKYDEVKKHWGGGI [RPL8A] | 2.66 ± 0.21 | 3.2 ± 0.12 | 2.97 ± 0.099 | 3.05 ± 0.14
AHMGVLLVLLQDVIKVL [SWP82] | 1.51 ± 0.068 | 1.58 ± 0.084 | 1.45 ± 0.1 | 1.51 ± 0.057
QFIYAGKKASLNVGNVL [RPL2A] | 2.59 ± 0.092 | 2.81 ± 0.11 | 2.86 ± 0.11 | 2.8 ± 0.092
LEETRTTIGDTTDKNTT [BRN1] | 3.2 ± 0.071 | 3.27 ± 0.059 | 3.04 ± 0.055 | 3.17 ± 0.057
MSLKDKLLIQIDELSNG [SMC1] | 2.27 ± 0.084 | 2.34 ± 0.11 | 3.08 ± 0.11 | 2.52 ± 0.1

Sequence | protein stability index (doa10∆) | protein stability index (pdr5∆) | protein stability index (san1∆) | protein stability index (ubr1∆)
EQSKEVGDVVGGALDNP [BRN1] | 3.29 ± 0.091 | 3.54 ± 0.078 | 3.44 ± 0.057 | 3.38 ± 0.058
FVVGVDNVSSQQMHEVR [RPP0] | 2.1 ± 0.078 | 2.74 ± 0.1 | 3.07 ± 0.15 | 2.74 ± 0.08
AIATTVIAHLTVEALDF [RET1] | 2.54 ± 0.12 | 2.32 ± 0.083 | 2.71 ± 0.076 | 2.37 ± 0.053
DERIEKELNTERQIFLE [CDC53] | 2.9 ± 0.1 | 3.09 ± 0.12 | 3.13 ± 0.097 | 3.12 ± 0.086
GVRDINCVNDVLEFCKD [POP1] | 2.93 ± 0.18 | 2.82 ± 0.18 | 2.36 ± 0.24 | 3.09 ± 0.26
ERKEREDFQKRQQKLLE [SWI1] | 3.27 ± 0.073 | 3.32 ± 0.06 | 3.34 ± 0.049 | 3.2 ± 0.048
QKESDAKNETNSESDSK [ITC1] | 2.94 ± 0.044 | 3.03 ± 0.046 | 3.02 ± 0.045 | 2.85 ± 0.043
LNKAGKPFRQTKFKVRG [RPL38] | 2.78 ± 0.12 | 3.33 ± 0.069 | 3.19 ± 0.11 | 3.04 ± 0.081
SLDQGDAEEDSQVENRV [SMC4] | – | – | – | 2.83 ± 0.17
NKKRPSSKKVFSSNLSY [YOR098C/NUP1] | 2.48 ± 0.073 | 2.4 ± 0.063 | 2.08 ± 0.1 | 2.56 ± 0.05
QINQGVPSAKPLILTPP [SNF11] | 2.75 ± 0.055 | 2.3 ± 0.052 | 2.8 ± 0.058 | 2.02 ± 0.032
SADAPNPNNVNVQTQYR [RET1] | 2.92 ± 0.09 | 2.84 ± 0.045 | 2.77 ± 0.07 | 2.79 ± 0.05
NILKILSSLILKIFQEQ [SRB8] | 2.17 ± 0.047 | 1.99 ± 0.05 | 2.48 ± 0.1 | 2.02 ± 0.037
SSSAQQTKSNGTAGGNT [YJL041W/NSP1] | 3.32 ± 0.12 | 3.46 ± 0.16 | 3.36 ± 0.078 | 3.28 ± 0.085
KNLKHIDVTFTKVNNQL [RPL9A] | 2.79 ± 0.057 | 2.58 ± 0.053 | 2.52 ± 0.07 | 2.62 ± 0.045
EYRPFSKKVLECLPAEG [DIS3] | 1.39 ± 0.13 | 1.68 ± 0.12 | 1.46 ± 0.1 | 1.56 ± 0.068
TDLESLSSGESNEIKVT [SIR4] | 2.99 ± 0.13 | 2.93 ± 0.11 | 2.69 ± 0.1 | 2.46 ± 0.071
YSSIPSLQDSIIKQENF [SSN2] | 2.7 ± 0.13 | 2.99 ± 0.17 | 2.5 ± 0.086 | 2.79 ± 0.14
FLLHNSEIIDTNTSKQF [SRB8] | 2.83 ± 0.086 | 3.06 ± 0.069 | 2.85 ± 0.055 | 2.81 ± 0.044
DEVYVQNSKFLKVNVTL [YJL039C/NUP192] | 2.68 ± 0.064 | 2.78 ± 0.054 | 2.76 ± 0.06 | 2.45 ± 0.039
SEEERKSSPISNEAAKP [YOR098C/NUP1] | 2.94 ± 0.099 | 2.97 ± 0.099 | 3.07 ± 0.069 | 3.21 ± 0.071
YSSWSAQTIGRNSKTVR [PRE6] | 2.62 ± 0.14 | 2.9 ± 0.14 | 2.91 ± 0.12 | 2.85 ± 0.098
HILRISFLDRKRAKEFI [SIN4] | 2.42 ± 0.079 | 2.67 ± 0.078 | 2.05 ± 0.063 | 2.4 ± 0.049
EVSKDLIAVYYSFGGLL [RPB8] | 2.55 ± 0.051 | 2.7 ± 0.067 | 2.46 ± 0.079 | 2.72 ± 0.057
VPISTSQTNNSFLSGVK [SIR4] | 2.56 ± 0.054 | 2.73 ± 0.07 | 2.63 ± 0.067 | 2.95 ± 0.057
AHDYNNDQDMFTIVSLV [YML103C/NUP188] | 2.76 ± 0.21 | 3.11 ± 0.16 | 3.23 ± 0.12 | 2.95 ± 0.13

Reference: the supplement of paper PMC9732359
